The chains are these.
B1: LINE1-mini (parent)
chain: GGCAGAGCUCAACACAGCGUGGCAAAGUGGCUGUGGCUAGACUGCC

The variants in the data set derive from B1. The data set is described as follows: self-cleavage, relative activity (ratio to wild type); higher = more cleavage; in vitro, sequencing; the parent is a self-cleaving ribozyme.
As for G40C A41C, the self-cleavage was 0.09.

For G40C A41G, the self-cleavage worked out at 0.07.

Regarding G40C U43C, the self-cleavage was determined as 0.07.

Take G40C U43A: the self-cleavage is 0.06.

On to G40C U43G, for which the self-cleavage amounted to 0.41.

As for A39U C42A, the self-cleavage amounted to 0.1.

On to A39U C42U, for which the self-cleavage came to 0.23.

On to A39U C42G, for which the self-cleavage worked out at 0.03.

As to G40C C46A, the self-cleavage came out at 0.1.

G40C C46U: the self-cleavage came out at 0.08.

As for G40C C46G, the self-cleavage turned out to be 0.08.

Take U43G C45A: the self-cleavage came to 0.32.

Consider U43G C45G, for which the self-cleavage came to 0.09.

U43G C45U: the self-cleavage turned out to be 0.19.

Regarding G40A C46U, the self-cleavage was 0.14.

As to G40A C46A, the self-cleavage was 0.14.

As for G40A C46G, the self-cleavage was found to be 0.11.

For the variant A39C, the self-cleavage worked out at 0.26.

Take A39G: the self-cleavage came to 0.1.

For the variant A39U, the self-cleavage worked out at 0.8.

On to C42A C46A, for which the self-cleavage was found to be 0.2.

With C42A C46G, the self-cleavage is 0.07.

As to C42A C46U, the self-cleavage was found to be 0.19.

Take A39U A41G: the self-cleavage is 0.14.

For the variant A39U A41C, the self-cleavage is 0.13.

As to A39U A41U, the self-cleavage was 0.67.

For C42U U43A, the self-cleavage turned out to be 0.12.

For the variant C42U U43C, the self-cleavage was 0.11.

For C42U U43G, the self-cleavage amounted to 0.15.

With A39U G44U, the self-cleavage is 0.12.

With A39U G44C, the self-cleavage came to 0.09.

Regarding A39U G44A, the self-cleavage was determined as 0.18.

A41G G44U: the self-cleavage was determined as 0.06.

On to A41G G44A, for which the self-cleavage came out at 0.08.

Regarding A41G G44C, the self-cleavage was 0.05.

For C42A C45G, the self-cleavage was 0.21.

For C42A C45U, the self-cleavage was found to be 0.13.

Turning to C42A C45A, the self-cleavage was found to be 0.09.

Consider C42A, for which the self-cleavage is 0.17.

For C42U, the self-cleavage was determined as 0.35.

Turning to C42G, the self-cleavage is 0.07.

For the variant A39G G40U, the self-cleavage was 0.14.

With A39G G40C, the self-cleavage turned out to be 0.08.

Consider A39G G40A, for which the self-cleavage came out at 0.05.

Consider G44U C45A, for which the self-cleavage amounted to 0.11.

Regarding G44U C45U, the self-cleavage came out at 0.14.

In the case of G44U C45G, the self-cleavage was 0.17.

Consider C42G C46U, for which the self-cleavage was found to be 0.09.

For C42G C46G, the self-cleavage was 0.04.

With C42G C46A, the self-cleavage worked out at 0.04.

As to G40A G44C, the self-cleavage turned out to be 0.08.

As for G40A G44U, the self-cleavage was 0.08.

As to G40A G44A, the self-cleavage is 0.19.

As for G44A C45A, the self-cleavage is 0.07.

Turning to G44A C45U, the self-cleavage was 0.1.

In the case of G44A C45G, the self-cleavage came out at 0.2.

Turning to A41C C45A, the self-cleavage was 0.11.

Regarding A41C C45U, the self-cleavage stood at 0.1.

As to A41C C45G, the self-cleavage turned out to be 0.1.

With G40U U43A, the self-cleavage was 0.08.

G40U U43C: the self-cleavage came out at 0.15.

In the case of G40U U43G, the self-cleavage stood at 0.47.

In the case of A41U C42U, the self-cleavage came to 0.09.

On to A41U C42G, for which the self-cleavage turned out to be 0.07.

For the variant A41U C42A, the self-cleavage was found to be 0.09.

On to G44U C46G, for which the self-cleavage worked out at 0.08.

Regarding G44U C46U, the self-cleavage turned out to be 0.12.

Take G44U C46A: the self-cleavage was found to be 0.08.

As to A41C G44U, the self-cleavage was 0.11.

Take A41C G44A: the self-cleavage worked out at 0.05.

As for A41C G44C, the self-cleavage is 0.08.

Take A41U C45U: the self-cleavage is 0.55.

For the variant A41U C45G, the self-cleavage was 0.23.

As to A41U C45A, the self-cleavage is 0.19.

Regarding U43A G44A, the self-cleavage is 0.1.

On to U43A G44U, for which the self-cleavage came out at 0.18.

For U43A G44C, the self-cleavage is 0.1.

In the case of G40U C46U, the self-cleavage was 0.11.

As to G40U C46G, the self-cleavage turned out to be 0.06.

Consider G40U C46A, for which the self-cleavage worked out at 0.12.

Turning to A41U U43A, the self-cleavage worked out at 0.17.

Consider A41U U43G, for which the self-cleavage is 0.17.

A41U U43C: the self-cleavage is 0.09.

On to C42G C45U, for which the self-cleavage was found to be 0.05.

C42G C45A: the self-cleavage was found to be 0.04.

As for C42G C45G, the self-cleavage came to 0.09.

On to A41G C45A, for which the self-cleavage came out at 0.09.

Regarding A41G C45U, the self-cleavage was 0.49.

Turning to A41G C45G, the self-cleavage came out at 0.05.

Turning to A41U C46G, the self-cleavage came out at 0.57.

As to A41U C46U, the self-cleavage amounted to 0.9.

As for A41U C46A, the self-cleavage turned out to be 0.33.

Turning to G44C C45U, the self-cleavage is 0.06.

Regarding G44C C45G, the self-cleavage was determined as 0.21.

Regarding G44C C45A, the self-cleavage amounted to 0.05.

With A39U U43G, the self-cleavage was 0.02.

Regarding A39U U43C, the self-cleavage is 0.06.

As to A39U U43A, the self-cleavage was 0.06.

For the variant C42U C45U, the self-cleavage was determined as 0.26.

C42U C45A: the self-cleavage came to 0.14.

C42U C45G: the self-cleavage stood at 0.09.

As for A39G C45G, the self-cleavage turned out to be 0.09.

Consider A39G C45U, for which the self-cleavage was determined as 0.06.

On to A39G C45A, for which the self-cleavage was 0.1.

With U43C, the self-cleavage came out at 0.14.

As for U43G, the self-cleavage turned out to be 0.12.

For U43A, the self-cleavage is 0.11.

For the variant G40C C42U, the self-cleavage is 0.07.

As for G40C C42G, the self-cleavage was 0.1.

With G40C C42A, the self-cleavage was determined as 0.07.

Consider U43G G44A, for which the self-cleavage worked out at 0.37.

With U43G G44C, the self-cleavage is 0.32.

On to U43G G44U, for which the self-cleavage came to 0.25.

As for U38G U43A, the self-cleavage worked out at 0.02.

Regarding U38G U43G, the self-cleavage came to 0.02.

For the variant U38G U43C, the self-cleavage worked out at 0.05.

Regarding A41G U43C, the self-cleavage is 0.04.

As for A41G U43A, the self-cleavage was 0.05.

Consider A41G U43G, for which the self-cleavage worked out at 0.05.

Regarding A41G C42A, the self-cleavage turned out to be 0.12.

Regarding A41G C42U, the self-cleavage was determined as 0.11.

As for A41G C42G, the self-cleavage was found to be 0.06.

G40U C45G: the self-cleavage stood at 0.14.

Take G40U C45U: the self-cleavage amounted to 0.15.

With G40U C45A, the self-cleavage came to 0.09.

Regarding C45G C46A, the self-cleavage is 0.21.

For the variant C45G C46U, the self-cleavage was determined as 0.66.

With C45G C46G, the self-cleavage amounted to 0.53.

Regarding A39C C42A, the self-cleavage came to 0.1.

With A39C C42G, the self-cleavage turned out to be 0.06.

As to A39C C42U, the self-cleavage came out at 0.05.

With A39C G44A, the self-cleavage turned out to be 0.08.

For A39C G44C, the self-cleavage came out at 0.04.

With A39C G44U, the self-cleavage was 0.1.

Consider U43A C46G, for which the self-cleavage worked out at 0.14.

As for U43A C46U, the self-cleavage turned out to be 0.13.

Take U43A C46A: the self-cleavage came out at 0.1.

Take C45A: the self-cleavage is 0.64.

For the variant C45U, the self-cleavage is 1.43.

Consider C45G, for which the self-cleavage was found to be 0.39.
